Biological target: eGFP-tagged htau 441 ΔK280 mutant (eGFP-tau ΔK280) (human) (UniProt P10636)
Experiment: fluorescence correlation spectroscopy (FCS/FCCS) in live cells; HEK293T cells overexpressing fluorescent-protein-fused tau; diffusion coefficient fitted (3D normal diffusion), mass by Stokes-Einstein, calibrated with eGFP-mCherry fusion; only tau not bound to microtubules

Work on “eGFP-tagged htau 441 ΔK280 mutant (eGFP-tau ΔK280) (from UniProt P10636-8 1-441) (natural protein)” yielded a stoichiometry N of 19.

Source: publication PMC11849630
